Patent publication US7034002

Target: Angiotensin converting enzyme (rabbit lung acetone powder, Sigma; supernatant of the extract) (rabbit) (UniProt P12822)
Test: cell-based or functional assay

Chain of UniProt P12822 (P12822 34-1310 limits assumed): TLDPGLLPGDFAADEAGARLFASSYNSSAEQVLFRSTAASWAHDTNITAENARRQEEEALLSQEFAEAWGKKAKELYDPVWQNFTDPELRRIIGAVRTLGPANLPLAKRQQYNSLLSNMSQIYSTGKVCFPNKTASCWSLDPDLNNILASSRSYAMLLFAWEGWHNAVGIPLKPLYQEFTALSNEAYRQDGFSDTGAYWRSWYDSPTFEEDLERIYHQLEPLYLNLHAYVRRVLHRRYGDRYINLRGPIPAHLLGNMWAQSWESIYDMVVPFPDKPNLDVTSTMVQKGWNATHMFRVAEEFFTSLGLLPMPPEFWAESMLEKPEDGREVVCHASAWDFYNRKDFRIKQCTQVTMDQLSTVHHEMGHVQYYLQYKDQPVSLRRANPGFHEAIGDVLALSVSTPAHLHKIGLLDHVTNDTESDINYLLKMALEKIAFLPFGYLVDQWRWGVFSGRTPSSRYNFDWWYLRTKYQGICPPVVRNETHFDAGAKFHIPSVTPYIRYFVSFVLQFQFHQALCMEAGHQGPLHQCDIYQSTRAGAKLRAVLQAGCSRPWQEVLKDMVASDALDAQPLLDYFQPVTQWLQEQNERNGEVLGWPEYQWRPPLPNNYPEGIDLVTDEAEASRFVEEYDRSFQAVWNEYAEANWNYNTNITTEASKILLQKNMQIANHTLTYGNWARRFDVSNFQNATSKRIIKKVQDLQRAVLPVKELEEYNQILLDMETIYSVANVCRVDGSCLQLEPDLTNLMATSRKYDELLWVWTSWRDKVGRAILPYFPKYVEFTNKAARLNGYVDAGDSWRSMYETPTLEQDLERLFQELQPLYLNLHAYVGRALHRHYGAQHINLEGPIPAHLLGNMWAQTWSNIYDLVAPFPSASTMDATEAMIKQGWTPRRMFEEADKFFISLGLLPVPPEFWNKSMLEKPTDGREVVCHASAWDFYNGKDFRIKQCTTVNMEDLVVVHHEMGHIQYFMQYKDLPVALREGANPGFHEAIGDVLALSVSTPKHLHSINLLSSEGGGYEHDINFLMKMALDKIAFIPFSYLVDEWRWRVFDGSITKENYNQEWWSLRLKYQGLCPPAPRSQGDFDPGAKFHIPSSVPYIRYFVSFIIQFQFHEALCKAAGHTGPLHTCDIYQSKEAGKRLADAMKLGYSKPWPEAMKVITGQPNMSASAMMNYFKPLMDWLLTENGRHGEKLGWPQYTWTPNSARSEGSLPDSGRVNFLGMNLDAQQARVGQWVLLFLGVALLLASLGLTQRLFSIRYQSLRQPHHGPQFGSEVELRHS

Substance	IC50 (angiotensin converting enzyme inhibitory activity, Bz-Gly-His-Leu substrate, OD228 of hippuric acid) [µg/mL]
Fraction E-6: concentrated thermolysin hydrolysate of homogenized dried bonito	110
Fraction E-4: ethanol precipitate of E-1	200
Fraction E-5: ethanol-soluble fraction of E-1	40
Fraction E-8: membrane-penetrating fraction of E-6	35
Fraction E-7: membrane-concentrated fraction of E-6	310
Fraction E-9: ethanol precipitate of E-6	200
Fraction E-2: membrane-concentrated fraction of E-1	300
Fraction E-3: membrane-penetrating fraction of E-1	30
Fraction E-10: ethanol-soluble fraction of E-6	50
Fraction E-1: concentrated thermolysin hydrolysate of the hot-water-extracted residue of dried bonito	80
